Data on five molecules can be found in US20250388669A1 (published 2025).

Positions count from the first letter of the chain named.

Assay [1] addresses T1, CD137 (human, UniProt Q07011 24-186).
T1 construct: In the reporter assay it is whole, on GS-H2-huCD137 cells; also called 4-1BB; huCD137
The assay can be described thus: CD137 binding, FCM or ELISA.

The target of assay [2] is T2, B7H3 (human, UniProt Q5ZPR3 29-466, limits assumed).
T2 construct: Tumor associated antigen; also called huB7H3
T2 sequence (looked up): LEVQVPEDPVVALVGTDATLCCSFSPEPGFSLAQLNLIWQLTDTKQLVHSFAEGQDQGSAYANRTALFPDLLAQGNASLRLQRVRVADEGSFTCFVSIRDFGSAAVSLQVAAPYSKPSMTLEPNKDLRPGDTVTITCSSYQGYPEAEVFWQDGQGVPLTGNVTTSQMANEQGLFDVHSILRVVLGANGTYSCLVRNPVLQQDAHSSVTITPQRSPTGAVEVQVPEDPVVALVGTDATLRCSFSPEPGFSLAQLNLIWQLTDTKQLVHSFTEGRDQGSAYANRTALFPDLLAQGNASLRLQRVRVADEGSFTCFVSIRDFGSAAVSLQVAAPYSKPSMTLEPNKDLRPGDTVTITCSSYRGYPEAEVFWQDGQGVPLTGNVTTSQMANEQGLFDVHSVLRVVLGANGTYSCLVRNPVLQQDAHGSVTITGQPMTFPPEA
The assay can be described thus: FCM or ELISA. (In an ELISA, binding on a coated surface is turned into a signal by an enzyme label.)

Assay [3] addresses T3, CD137 (human, UniProt Q07011 24-186).
T3 construct: Reporter assays used GS-H2-huCD137 cells expressing human CD137; also called 4-1BB/CD137; huCD137
The assay can be described thus: CD137 binding by FCM or ELISA.

Assay [4] addresses CD3 (human). The assay can be described thus: CD3 binding, as described in Example 2 (ELISA or FCM).

Chain of CD3 (human) (chain, as listed by the source): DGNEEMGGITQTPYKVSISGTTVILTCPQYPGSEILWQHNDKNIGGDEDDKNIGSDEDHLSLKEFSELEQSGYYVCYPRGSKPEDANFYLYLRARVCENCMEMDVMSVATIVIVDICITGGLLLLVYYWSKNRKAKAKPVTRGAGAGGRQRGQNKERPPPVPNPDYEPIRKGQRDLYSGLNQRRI

B1: Ly2326 (bispecific antibody, human IgG1, kappa)
chain 1: QVQLQQSGAELVRPGSSVKISCKASGYAFSSYWMNWVKQRPGQGLEWIGQIWPGDGDTNYNGKFKGKATLTADESSSTAYMQLSSLASEDSAVYFCARRETTTVGRYYYAMDYWGQGTTVTVSSASTKGPSVFPLAPSSKSTSGGTAALGCLVKDYFPEPVTVSWNSGALTSGVHTFPAVLQSSGLYSLSSVVTVPSSSLGTQTYICNVNHKPSNTKVDKKVEPKSCDKTHTCPPCPAPEAAGPSVFLFPPKPKDTLMISRTPEVTCVVVDVSHEDPEVKFNWYVDGVEVHNAKTKPREEQYNSTYRVVSVLTVLHQDWLNGKEYKCKVSNKALPAPIEKTISKAKGQPREPQVYTLPPSREEMTKNQVSLWCLVKGFYPSDIAVEWESNGQPENNYKTTPPVLDSDGSFFLYSKLTVDKSRWQQGNVFSCSVMHEALHNHYTQKSLSLSPGGGGGSGGGGSGGGGSGGGGSQVQLVQSGAEVKKPGASVKVSCKASGYTFAGFEMHWVRQAPGQGLEWMGAIDPKTGGTDYNQKFKDRVTMTRDTSISTAYMELSRLRSDDTAVYYCARDLGYFDVWGQGTLVTVSS
chain 2: QVQLQQSGAELVRPGSSVKISCKASGYAFSSYWMNWVKQRPGQGLEWIGQIWPGDGDTNYNGKFKGKATLTADESSSTAYMQLSSLASEDSAVYFCARRETTTVGRYYYAMDYWGQGTTVTVSSASTKGPSVFPLAPSSKSTSGGTAALGCLVKDYFPEPVTVSWNSGALTSGVHTFPAVLQSSGLYSLSSVVTVPSSSLGTQTYICNVNHKPSNTKVDKKVEPKSCDKTHTCPPCPAPEAAGPSVFLFPPKPKDTLMISRTPEVTCVVVDVSHEDPEVKFNWYVDGVEVHNAKTKPREEQYNSTYRVVSVLTVLHQDWLNGKEYKCKVSNKALPAPIEKTISKAKGQPREPQVYTLPPSREEMTKNQVSLSCAVKGFYPSDIAVEWESNGQPENNYKTTPPVLDSDGSFFLVSKLTVDKSRWQQGNVFSCSVMHEALHNRFTQKSLSLSPGGGGGSGGGGSGGGGSGGGGSDIQMTQSPSSLSASVGDRVTITCRASQDIRSNLNWYQQKPGGAVKLLIYYTSRLHSGVPSRFSGSGSGTDYTLTISSLQPEDFATYFCQQSEKLPRTFGGGTKVEIR
light: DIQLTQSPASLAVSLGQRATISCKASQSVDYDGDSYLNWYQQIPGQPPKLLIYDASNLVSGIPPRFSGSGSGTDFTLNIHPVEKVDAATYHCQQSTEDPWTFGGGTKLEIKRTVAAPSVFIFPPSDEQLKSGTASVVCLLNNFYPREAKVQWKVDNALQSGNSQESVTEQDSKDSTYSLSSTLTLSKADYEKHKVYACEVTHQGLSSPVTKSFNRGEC
notes: CD19 Fabs, terminal CD137 Fv
As to B1, the binding result in assay [1] was “binds”.

B2: Ly1963 (other)
chain 1: QVQLVQSGAEVKKPGASVKVSCKASGYTFTSYVMHWVRQKPGQGLEWIGYINPYNEGTESTDKFKGRATMTSDKSTSTVYMELSSLRSEDTAVYYCASIYYGYEGTYFGVWGQGTLVTVSSASTKGPSVFPLAPSSKSTSGGTAALGCLVKDYFPEPVTVSWNSGALTSGVHTFPAVLQSSGLYSLSSVVTVPSSSLGTQTYICNVNHKPSNTKVDKKVEPKSCGGGGSGGGGSGGGGSGGGGSEVQLVESGGGLVQPGGSLRLSCAASGFTFSTYAMNWVRQAPGKGLEWVGRIRSKYNNYATYYADSVKGRFTISRDDSKNSLYLQMNSLKTEDTAVYYCVRHGNFGNSYVSWFAYWGQGTLVTVSSGGGGSDKTHTCPPCPAPEAAGPSVFLFPPKPKDTLMISRTPEVTCVVVDVSHEDPEVKFNWYVDGVEVHNAKTKPREEQYNSTYRVVSVLTVLHQDWLNGKEYKCKVSNKALPAPIEKTISKAKGQPREPQVYTLPPSREEMTKNQVSLWCLVKGFYPSDIAVEWESNGQPENNYKTTPPVLDSDGSFFLYSKLTVDKSRWQQGNVFSCSVMHEALHNHYTQKSLSLSPGGGGGSGGGGSGGGGSGGGGSQVQLVQSGAEVKKPGASVKVSCKASGYTFAGFEMHWVRQAPGQGLEWMGAIDPKTGGTDYNQKFKDRVTMTRDTSISTAYMELSRLRSDDTAVYYCARDLGYFDVWGQGTLVTVSS
chain 2: QVQLVQSGAEVKKPGASVKVSCKASGYTFTSYVMHWVRQKPGQGLEWIGYINPYNEGTESTDKFKGRATMTSDKSTSTVYMELSSLRSEDTAVYYCASIYYGYEGTYFGVWGQGTLVTVSSASTKGPSVFPLAPSSKSTSGGTAALGCLVKDYFPEPVTVSWNSGALTSGVHTFPAVLQSSGLYSLSSVVTVPSSSLGTQTYICNVNHKPSNTKVDKKVEPKSCGGGGSGGGGSGGGGSGGGGSQAVVTQEPSLTVSPGGTVTLTCRSSTGAVTTSNYANWVQQKPGQAPRGLIGGTNKRAPWTPARFSGSLLGGKAALTITGAQAEDEADYYCALWYSNLWVFGGGTKLTVLGGGGSDKTHTCPPCPAPEAAGPSVFLFPPKPKDTLMISRTPEVTCVVVDVSHEDPEVKFNWYVDGVEVHNAKTKPREEQYNSTYRVVSVLTVLHQDWLNGKEYKCKVSNKALPAPIEKTISKAKGQPREPQVYTLPPSREEMTKNQVSLSCAVKGFYPSDIAVEWESNGQPENNYKTTPPVLDSDGSFFLVSKLTVDKSRWQQGNVFSCSVMHEALHNHYTQKSLSLSPGGGGGSGGGGSGGGGSGGGGSDIQMTQSPSSLSASVGDRVTITCRASQDIRSNLNWYQQKPGGAVKLLIYYTSRLHSGVPSRFSGSGSGTDYTLTISSLQPEDFATYFCQQSEKLPRTFGGGTKVEIR
light: EIVLTQSPATLSLSPGERATLSCRASSSVSYMHWYQQKPGQAPRPWIYATSNLASGIPARFSGSRSGTDYTLTISSLEPEDFAVYYCQQWSSNTLTFGGGTKVEIKRTVAAPSVFIFPPSDEQLKSGTASVVCLLNNFYPREAKVQWKVDNALQSGNSQESVTEQDSKDSTYSLSSTLTLSKADYEKHKVYACEVTHQGLSSPVTKSFNRGEC
Turning to B2, the binding result in assay [2] and in assay [3] was “binds” each time.

B3: Ly2122 (bispecific antibody, human IgG1, kappa)
chain 1: QVQLVQSGAEVKKPGASVKVSCKASGYTFTSYVMHWVRQKPGQGLEWIGYINPYNEGTESTDKFKGRATMTSDKSTSTVYMELSSLRSEDTAVYYCASIYYGYEGTYFGVWGQGTLVTVSSASTKGPSVFPLAPSSKSTSGGTAALGCLVKDYFPEPVTVSWNSGALTSGVHTFPAVLQSSGLYSLSSVVTVPSSSLGTQTYICNVNHKPSNTKVDKKVEPKSCDKTHTCPPCPAPEAAGPSVFLFPPKPKDTLMISRTPEVTCVVVDVSHEDPEVKFNWYVDGVEVHNAKTKPREEQYNSTYRVVSVLTVLHQDWLNGKEYKCKVSNKALPAPIEKTISKAKGQPREPQVYTLPPSREEMTKNQVSLWCLVKGFYPSDIAVEWESNGQPENNYKTTPPVLDSDGSFFLYSKLTVDKSRWQQGNVFSCSVMHEALHNHYTQKSLSLSPGGGGGSGGGGSGGGGSGGGGSQVQLVQSGAEVKKPGASVKVSCKASGYTFAGFEMHWVRQAPGQGLEWMGAIDPKTGGTDYNQKFKDRVTMTRDTSISTAYMELSRLRSDDTAVYYCARDLGYFDVWGQGTLVTVSS
chain 2: QVQLVQSGAEVKKPGASVKVSCKASGYTFTSYVMHWVRQKPGQGLEWIGYINPYNEGTESTDKFKGRATMTSDKSTSTVYMELSSLRSEDTAVYYCASIYYGYEGTYFGVWGQGTLVTVSSASTKGPSVFPLAPSSKSTSGGTAALGCLVKDYFPEPVTVSWNSGALTSGVHTFPAVLQSSGLYSLSSVVTVPSSSLGTQTYICNVNHKPSNTKVDKKVEPKSCDKTHTCPPCPAPEAAGPSVFLFPPKPKDTLMISRTPEVTCVVVDVSHEDPEVKFNWYVDGVEVHNAKTKPREEQYNSTYRVVSVLTVLHQDWLNGKEYKCKVSNKALPAPIEKTISKAKGQPREPQVYTLPPSREEMTKNQVSLSCAVKGFYPSDIAVEWESNGQPENNYKTTPPVLDSDGSFFLVSKLTVDKSRWQQGNVFSCSVMHEALHNRFTQKSLSLSPGGGGGSGGGGSGGGGSGGGGSDIQMTQSPSSLSASVGDRVTITCRASQDIRSNLNWYQQKPGGAVKLLIYYTSRLHSGVPSRFSGSGSGTDYTLTISSLQPEDFATYFCQQSEKLPRTFGGGTKVEIR
light: B2 light
notes: B7H3/CD137: two B7H3 Fabs, terminal CD137 Fv
Regarding B3, the binding result in assay [2] and in assay [3] was “binds” each time.

B4: Ly1966 (other)
chain 1: QVQLQQSGAELVRPGSSVKISCKASGYAFSSYWMNWVKQRPGQGLEWIGQIWPGDGDTNYNGKFKGKATLTADESSSTAYMQLSSLASEDSAVYFCARRETTTVGRYYYAMDYWGQGTTVTVSSASTKGPSVFPLAPSSKSTSGGTAALGCLVKDYFPEPVTVSWNSGALTSGVHTFPAVLQSSGLYSLSSVVTVPSSSLGTQTYICNVNHKPSNTKVDKKVEPKSCGGGGSGGGGSGGGGSGGGGSEVQLVESGGGLVQPGGSLRLSCAASGFTFSTYAMNWVRQAPGKGLEWVGRIRSKYNNYATYYADSVKGRFTISRDDSKNSLYLQMNSLKTEDTAVYYCVRHGNFGNSYVSWFAYWGQGTLVTVSSGGGGSDKTHTCPPCPAPEAAGPSVFLFPPKPKDTLMISRTPEVTCVVVDVSHEDPEVKFNWYVDGVEVHNAKTKPREEQYNSTYRVVSVLTVLHQDWLNGKEYKCKVSNKALPAPIEKTISKAKGQPREPQVYTLPPSREEMTKNQVSLWCLVKGFYPSDIAVEWESNGQPENNYKTTPPVLDSDGSFFLYSKLTVDKSRWQQGNVFSCSVMHEALHNHYTQKSLSLSPGGGGGSGGGGSGGGGSGGGGSQVQLVQSGAEVKKPGASVKVSCKASGYTFAGFEMHWVRQAPGQGLEWMGAIDPKTGGTDYNQKFKDRVTMTRDTSISTAYMELSRLRSDDTAVYYCARDLGYFDVWGQGTLVTVSS
chain 2: QVQLQQSGAELVRPGSSVKISCKASGYAFSSYWMNWVKQRPGQGLEWIGQIWPGDGDTNYNGKFKGKATLTADESSSTAYMQLSSLASEDSAVYFCARRETTTVGRYYYAMDYWGQGTTVTVSSASTKGPSVFPLAPSSKSTSGGTAALGCLVKDYFPEPVTVSWNSGALTSGVHTFPAVLQSSGLYSLSSVVTVPSSSLGTQTYICNVNHKPSNTKVDKKVEPKSCGGGGSGGGGSGGGGSGGGGSQAVVTQEPSLTVSPGGTVTLTCRSSTGAVTTSNYANWVQQKPGQAPRGLIGGTNKRAPWTPARFSGSLLGGKAALTITGAQAEDEADYYCALWYSNLWVFGGGTKLTVLGGGGSDKTHTCPPCPAPEAAGPSVFLFPPKPKDTLMISRTPEVTCVVVDVSHEDPEVKFNWYVDGVEVHNAKTKPREEQYNSTYRVVSVLTVLHQDWLNGKEYKCKVSNKALPAPIEKTISKAKGQPREPQVYTLPPSREEMTKNQVSLSCAVKGFYPSDIAVEWESNGQPENNYKTTPPVLDSDGSFFLVSKLTVDKSRWQQGNVFSCSVMHEALHNRFTQKSLSLSPGGGGGSGGGGSGGGGSGGGGSDIQMTQSPSSLSASVGDRVTITCRASQDIRSNLNWYQQKPGGAVKLLIYYTSRLHSGVPSRFSGSGSGTDYTLTISSLQPEDFATYFCQQSEKLPRTFGGGTKVEIR
light: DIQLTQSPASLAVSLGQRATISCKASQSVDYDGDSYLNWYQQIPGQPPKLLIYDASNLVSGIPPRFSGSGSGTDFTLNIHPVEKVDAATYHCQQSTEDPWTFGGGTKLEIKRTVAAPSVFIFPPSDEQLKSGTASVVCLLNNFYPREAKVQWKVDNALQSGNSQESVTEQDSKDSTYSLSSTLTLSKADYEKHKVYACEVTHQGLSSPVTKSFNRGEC
notes: Tri-specific antibody: CD19 Fabs, central CD3 Fv, terminal CD137 Fv
As for B4, in assay [1], the binding result is “binds”. The molecule further yielded a concentration for a half-maximal effect (EC50) in assay [4] of 0.348 µg/mL.

B5: Ly1967 (other)
chain 1: B4 chain 1
chain 2: B4 chain 2 with R575H, F576Y
light: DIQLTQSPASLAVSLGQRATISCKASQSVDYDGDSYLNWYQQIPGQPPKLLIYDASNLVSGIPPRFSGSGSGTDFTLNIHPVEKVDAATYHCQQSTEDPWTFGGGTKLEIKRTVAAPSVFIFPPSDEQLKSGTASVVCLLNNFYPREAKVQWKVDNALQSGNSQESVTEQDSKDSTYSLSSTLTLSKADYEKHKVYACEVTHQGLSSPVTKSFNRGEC
notes: as for B4
For B5, the binding result in assay [1] is given as “binds”. In assay [4], it took 1.56 µg/mL to reach a half-maximal effect (EC50).

As usually defined, the EC50 is the concentration at which the effect is half-maximal. A higher EC50 goes with a less potent agent.
